According to paper PMC9563052:

Target: fibrinogen γ-chain C-terminal residues 390-411 fused to GST
Experiment: ELISA; ligand (γC390-411 or γC151-411) coated, soluble αIIbβ3 (1 µg/mL) pre-incubated with chemokine (CCL5, CXCL12 or CX3CL1) for 10 min, then 1 h at room temperature in HEPES-Tyrodes buffer with 1 mM CaCl2

Q: “soluble recombinant integrin αIIbβ3 (from UniProt P08514 32-1039; P05106 27-718) (complex)” was tested. Which fold binding to γC390-411 with CCL5 (50 µg/mL, 1 mM Ca2+) over 1 mM Mn2+ alone did it give?
A: The fold binding to γC390-411 with CCL5 (50 µg/mL, 1 mM Ca2+) over 1 mM Mn2+ alone was 4.5 fold.

Q: And the fold binding to γC390-411 with CXCL12 (50 µg/mL, 1 mM Ca2+) over 1 mM Mn2+ alone?
A: The fold binding to γC390-411 with CXCL12 (50 µg/mL, 1 mM Ca2+) over 1 mM Mn2+ alone was 3.5 fold.
